Assay results as given in patent US20150018228A1, “ENZYME DETECTION BY MICROFLUIDICS” (priority 2011, published 2015).

Experiments:
Format in all cases: biochemical, Plasmodium falciparum
[1] = test system: pfTopI; assay: Cleavage-ligation assay with radio-labeled DNA substrates in absence or presence of camptothecin; conditions: 60 μM CPT, duplex OL62/OL63, 20 min at 37° C.
Method: Detection of PfTopI activity using radio-labeled DNA substrates: DNA cleavage reactions were carried out by incubating 20 nM duplex OL37/OL56 or OL62/OL63 with 500 fmol of pfTopI or hTopI in the absence or presence of 60 μM CPT for 20 min at 37° C. in 10 mM Tris (pH 7.5), 5 mM MgCl2, and 5 mM CaCl2 in a final volume of 20 μl. After the 20 min incubation, reactions were stopped with 0.5% (w/v) SDS. Samples were subjected to ethanol precipitation, resuspended in 10 μl of 1 mg/ml trypsin and incubated at 37° C. for 30 min. Reaction products were analyzed by denaturing polyacrylamide gel electrophoresis following standard procedures, and radioactive bands were visualized by PhosphorImaging.

[2] = test system: pfTopI; assay: RCA-based biosensor (REEAD) circularization of oligonucleotide substrates by purified pfTopI
Method: As shown in FIG. 1A and FIG. 4, in contrast to its human counterpart, pfTopI is able to cleave close to DNA ends with high efficiency. […] To address this possibility, purified pfTopI was incubated with each of the substrates Su2-Su6 (FIG. 1B) and the products analysed using the RCA based detection system as schematically outlined in FIG. 1C. The sequence of the substrates Su4, Su5, and Su6 was modified to match the sequence that was cleaved with high efficiency in substrate XX.
Based on this, five different oligonucleotides with potential of being circularized specifically by pfTopI cleavage-ligation were designed. These oligonucleotides (PfTop1(S1-S5)) all folded into a hairpin structure containing a probe- and a primer-annealing sequence in the single-stranded loop and a potential pfTopI recognizable sequence at the end of the double-stranded stem region (FIG. 1b). […] To allow comparative quantification of signals generated in different reactions, a known concentration of control-circle with a unique probe-annealing sequence was added to the reaction mixtures before RCA and resulting RCPs visualized using a green-fluorescent probe. […]
(§1) The 5′-amine-conjugated primer was coupled to CodeLink Activated Slides (SurModics) according to the manufacturer's description. […] Quantification of pfTopI specific signals was performed as previously described^1.

[3] = test system: pfTopI; assay: REEAD in nuclear extract from HEK293T cells with or without spike-in pfTopI; conditions: signals only with spike-in pfTopI
Method: The use of Su2 for detecting pfTopI activity in human cell extracts in the RCA-based biosensor setup was also verified. […] As a control for successful RCA and probe annealing a circularized control circle was added to each sample before annealing to the primer coated slide. […] As expected, comparative levels of green and blue spots corresponding to RCPs from […] and control circles, respectively, could be observed in both samples (FIG. 2A).
The specificity of pfTopI(S1) for pfTopI in crude biological samples was addressed using nuclear extract from human HEK293T cells with or without spike-in pfTopI as a model for Plasmodium infection. […] Consequently, green signals observed in FIG. 22b, right panel, originated from hTopI and pfTopI activity in combination where pfTopI(S1) and S(TopI) competed for reaction by pfTopI at the expense of sensitivity.
Human embryonic kidney HEK293T cells were cultured in Dulbecco's Modified Eagle Medium (GIBCO) supplemented with 10% fetal bovine serum (FBS) (GIBCO), 100 units/mL penicillin and […] streptomycin (Invitrogen). Cells were incubated in a humidified incubator (5% CO2/95% air atmosphere at 37° C.). […]
as §1

[4] = test system: pfTopI; assay: REEAD with HRP-mediated colorimetric readout, purified pfTopI; conditions: purified pfTopI circularizing S1
Source text: To investigate if the Plasmodium-specific REEAD could be adapted to simple colorimetric readout, suitable for low-resource settings without compromising sensitivity, an additional enzymatic step was introduced to the assay by coupling streptavidin-fused HRP to biotinylated RCPs as described by Yan, J. et al. An on-nanoparticle rolling-circle amplification platform for ultrasensitive protein detection in biological fluids. Small 6, 2520-2525 (2010). HRP oxidizes colorless tetramethylbenzidine to a blue-colored form, detectable to the naked eye or by spectrophotometric measurements. This, of course, is at the expense of the possibility of multiplexing since RCPs originating from different circles cannot be distinguished. […] This, however, imposed the advantage of preventing competition between S(TopI) and pfTopI(S1) for pfTopI, as discussed above. The two readout formats were compared by reacting pfTopI(S1) with increasing dilutions of extracts from blood sample #2 followed by microscopic visualization of RCPs or by spectrophotometric measurement of HRP substrate conversion. As evident from FIG. 23 colorimetric readout increased sensitivity of REEAD by a factor two compared to microscopic readout. […]

CC[C@@]1(O)C(=O)OCc2c1cc1n(c2=O)Cc2cc3ccccc3nc2-1 [camptothecin]
effect on ligation product formation by pfTopI [1]: ligation product is only observed upon incubation of the substrate with pfTopI in the absence of camptothecin

B1: pfTopI(S1): hairpin oligonucleotide sensor circularized by pfTopI, SEQ ID NO: 8 (nucleic acid)
chain: TCTAGAAAGTATAGGAACTTCGAACGACTCAGAATGACTGTGAAGATCGCTTATCCTCAATGCACATGTTTGGCTCCCATTCTGAGTCGTTCGAAGTTCCTATACTTT
modifications: chemistry not fully specified
circularization efficiency by pfTopI, substrate signals relative to control circle signals ([2]; purified pfTopI, compared among the tested substrates): the most efficient sensor of pfTopI | specificity for pfTopI in crude human cell extract [3]: specificity of pfTopI(S1) for pfTopI even on a background of human nucleus content | detection of pfTopI, spectrophotometric measurement of HRP reaction ([4]; FIG. 27): 2 aM | detection of pfTopI, direct visual detection of HRP reaction ([4]; data not shown): 200 aM

B2: S(TopI): self-folding oligonucleotide substrate for human topoisomerase I, SEQ ID NO: 25 (nucleic acid)
chain: AGAAAAATTTTTAAAAAAACTGTGAAGATCGCTTATTTTTTTAAAAATTTTTCTAAGTCTTTTAGATCCCTCAATGCTGCTGCTGTACTACGATCTAAAAGACTTAGA
modifications: listed as DNA, chemistry not fully specified
circularization (conversion to closed circles) by pfTopI ([2]; purified recombinant pfTopI, RCA and fluorescent probe readout): circularizes S(TopI)
